Target: eIF4E (human, UniProt P06730 1-217)
Assay: EMSA; KD measured but printed only in the figure; higher affinity than M6 3'OMe; EMSA: 25 nM oligo, eIF4E 5 nM to 1.5 uM (2-fold dilutions), 100 mM NaCl, 50 mM Tris-Cl (pH and remaining components cut off in material), temperature not given
Conditions: protein: recombinant; (stated for spectral shift oligos); single strand

Sequence of eIF4E (P06730 whole entry): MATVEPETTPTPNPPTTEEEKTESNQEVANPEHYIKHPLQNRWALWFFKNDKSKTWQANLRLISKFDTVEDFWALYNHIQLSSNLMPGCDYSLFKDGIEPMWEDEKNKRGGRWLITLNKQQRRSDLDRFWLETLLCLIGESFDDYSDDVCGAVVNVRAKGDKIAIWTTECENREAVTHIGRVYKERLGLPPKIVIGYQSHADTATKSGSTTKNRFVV

## AGGAAAUAAGAGAGAAAAGAAGAGUAAGAAGAAAUAUAAGAGC (ssRNA, 5' cap m7GpppA(2'OMe)G; A1 is 2'-O-methyl; cap m7G not in strand) [AG 3'OH cap 43-mer]
  binding result: binds

Reference: article PMC11835620, “CleanCap M6 inhibits decapping of exogenously delivered IVT mRNA”
